Source: paper PMC4956256

Experiments:
[1] = molecular target: soluble CD4 receptor ligand, CD4-Fc (sCD4) (UniProt P01730); assay: SPR; BIAcore 3000; about 200 RU of sCD4 immobilised directly on a CM5 chip by amine coupling; varying concentrations of gp120 injected at 100 ul/min; 25°C; PBS + 0.1% BSA; 1:1 Langmuir fit
[2] = molecular target: TV1.C gp120 monomer (HIV-1 subtype C, strain TV1.C); assay: SEC + other: SDS-PAGE; purified TV1.C gp120; SDS-PAGE under reduced and non-reduced conditions; SEC-HPLC under non-reduced and reduced (otherwise native) conditions

With 1086.C gp120 monomer (natural protein) the Kd [1] was 26.6 nM.

Work on TV1.C gp120 monomer (natural protein) yielded a Kd [1] of 148 nM and a stoichiometry N [2] of 2.
